Laboratory results from paper PMC5116672.

Experiments:
[1] = protein accumulation on Gp78 siRNA, immunoblot; conditions: glycan lost; control: CD147(WT)-EGFP
[2] = immunofluorescence colocalisation with chaperones; conditions: glycan lost; control: CD147(WT)-EGFP
[3] = anti-EGFP immunoblot of total lysates; mRNA unchanged; conditions: glycan lost; control: CD147(WT)-EGFP
[4] = confocal immunofluorescence with ER-Tracker, stable cells; conditions: glycan lost; control: CD147(WT)-EGFP
[5] = confocal immunofluorescence with ER-Tracker, transient double mutants; conditions: glycan lost; control: CD147(WT)-EGFP
[6] = immunofluorescence with CNX, 12 h castanospermine; conditions: glycan changed form
[7] = immunofluorescence, aggregation with GRP78, 24 h castanospermine; conditions: glycan changed form; control: CD147(WT)-EGFP cells without CAS

Protein	localisation_or_trafficking [4]	localisation_or_trafficking [5]	also measured
CD147: N152Q (protein) parent chain: MAAALFVLLGFALLGTHGASGAAGTVFTTVEDLGSKILLTCSLNDSATEVTGHRWLKGGVVLKEDALPGQKTEFKVDSDDQWGEYSCVFLPEPMGTANIQLHGPPRVKAVKSSEHINEGETAMLVCKSESVPPVTDWAWYKITDSEDKALMNGSESRFFVSSSQGRSELHIENLNMEADPGQYRCNGTSSKGSDQAIITLRVRSHLAALWPFLGIVAEVLVLVTIIFIYEKRRKPEDVLDDDDAGSAPLKSSGQHQNDKGKNVRQRNSS	changes		degradation_or_half_life [1]: decreases; localisation_or_trafficking [2]: increases; expression_or_secretion [3]: decreases
CD147: N44/186Q (protein) parent chain: MAAALFVLLGFALLGTHGASGAAGTVFTTVEDLGSKILLTCSLNDSATEVTGHRWLKGGVVLKEDALPGQKTEFKVDSDDQWGEYSCVFLPEPMGTANIQLHGPPRVKAVKSSEHINEGETAMLVCKSESVPPVTDWAWYKITDSEDKALMNGSESRFFVSSSQGRSELHIENLNMEADPGQYRCNGTSSKGSDQAIITLRVRSHLAALWPFLGIVAEVLVLVTIIFIYEKRRKPEDVLDDDDAGSAPLKSSGQHQNDKGKNVRQRNSS		no change	
CD147: castanospermine (CAS) 12 h (protein) parent chain: MAAALFVLLGFALLGTHGASGAAGTVFTTVEDLGSKILLTCSLNDSATEVTGHRWLKGGVVLKEDALPGQKTEFKVDSDDQWGEYSCVFLPEPMGTANIQLHGPPRVKAVKSSEHINEGETAMLVCKSESVPPVTDWAWYKITDSEDKALMNGSESRFFVSSSQGRSELHIENLNMEADPGQYRCNGTSSKGSDQAIITLRVRSHLAALWPFLGIVAEVLVLVTIIFIYEKRRKPEDVLDDDDAGSAPLKSSGQHQNDKGKNVRQRNSS			localisation_or_trafficking ([6]; control: CD147(WT)-EGFP cells without CAS): changes
CD147: castanospermine (CAS) 12 h on N44/186Q (protein) parent chain: MAAALFVLLGFALLGTHGASGAAGTVFTTVEDLGSKILLTCSLNDSATEVTGHRWLKGGVVLKEDALPGQKTEFKVDSDDQWGEYSCVFLPEPMGTANIQLHGPPRVKAVKSSEHINEGETAMLVCKSESVPPVTDWAWYKITDSEDKALMNGSESRFFVSSSQGRSELHIENLNMEADPGQYRCNGTSSKGSDQAIITLRVRSHLAALWPFLGIVAEVLVLVTIIFIYEKRRKPEDVLDDDDAGSAPLKSSGQHQNDKGKNVRQRNSS			localisation_or_trafficking ([6]; control: CD147(N44/186Q)-EGFP cells without CAS): changes
CD147: N186Q (protein) parent chain: MAAALFVLLGFALLGTHGASGAAGTVFTTVEDLGSKILLTCSLNDSATEVTGHRWLKGGVVLKEDALPGQKTEFKVDSDDQWGEYSCVFLPEPMGTANIQLHGPPRVKAVKSSEHINEGETAMLVCKSESVPPVTDWAWYKITDSEDKALMNGSESRFFVSSSQGRSELHIENLNMEADPGQYRCNGTSSKGSDQAIITLRVRSHLAALWPFLGIVAEVLVLVTIIFIYEKRRKPEDVLDDDDAGSAPLKSSGQHQNDKGKNVRQRNSS	changes		
CD147: N44/152Q (protein) parent chain: MAAALFVLLGFALLGTHGASGAAGTVFTTVEDLGSKILLTCSLNDSATEVTGHRWLKGGVVLKEDALPGQKTEFKVDSDDQWGEYSCVFLPEPMGTANIQLHGPPRVKAVKSSEHINEGETAMLVCKSESVPPVTDWAWYKITDSEDKALMNGSESRFFVSSSQGRSELHIENLNMEADPGQYRCNGTSSKGSDQAIITLRVRSHLAALWPFLGIVAEVLVLVTIIFIYEKRRKPEDVLDDDDAGSAPLKSSGQHQNDKGKNVRQRNSS		changes	
CD147: N44/152/186Q (protein) parent chain: MAAALFVLLGFALLGTHGASGAAGTVFTTVEDLGSKILLTCSLNDSATEVTGHRWLKGGVVLKEDALPGQKTEFKVDSDDQWGEYSCVFLPEPMGTANIQLHGPPRVKAVKSSEHINEGETAMLVCKSESVPPVTDWAWYKITDSEDKALMNGSESRFFVSSSQGRSELHIENLNMEADPGQYRCNGTSSKGSDQAIITLRVRSHLAALWPFLGIVAEVLVLVTIIFIYEKRRKPEDVLDDDDAGSAPLKSSGQHQNDKGKNVRQRNSS	changes		expression_or_secretion [3]: decreases
CD147: N44Q (protein) parent chain: MAAALFVLLGFALLGTHGASGAAGTVFTTVEDLGSKILLTCSLNDSATEVTGHRWLKGGVVLKEDALPGQKTEFKVDSDDQWGEYSCVFLPEPMGTANIQLHGPPRVKAVKSSEHINEGETAMLVCKSESVPPVTDWAWYKITDSEDKALMNGSESRFFVSSSQGRSELHIENLNMEADPGQYRCNGTSSKGSDQAIITLRVRSHLAALWPFLGIVAEVLVLVTIIFIYEKRRKPEDVLDDDDAGSAPLKSSGQHQNDKGKNVRQRNSS	changes		
CD147: castanospermine (CAS) 24 h (protein) parent chain: MAAALFVLLGFALLGTHGASGAAGTVFTTVEDLGSKILLTCSLNDSATEVTGHRWLKGGVVLKEDALPGQKTEFKVDSDDQWGEYSCVFLPEPMGTANIQLHGPPRVKAVKSSEHINEGETAMLVCKSESVPPVTDWAWYKITDSEDKALMNGSESRFFVSSSQGRSELHIENLNMEADPGQYRCNGTSSKGSDQAIITLRVRSHLAALWPFLGIVAEVLVLVTIIFIYEKRRKPEDVLDDDDAGSAPLKSSGQHQNDKGKNVRQRNSS			stability_or_folding [7]: decreases
CD147: N152/186Q (protein) parent chain: MAAALFVLLGFALLGTHGASGAAGTVFTTVEDLGSKILLTCSLNDSATEVTGHRWLKGGVVLKEDALPGQKTEFKVDSDDQWGEYSCVFLPEPMGTANIQLHGPPRVKAVKSSEHINEGETAMLVCKSESVPPVTDWAWYKITDSEDKALMNGSESRFFVSSSQGRSELHIENLNMEADPGQYRCNGTSSKGSDQAIITLRVRSHLAALWPFLGIVAEVLVLVTIIFIYEKRRKPEDVLDDDDAGSAPLKSSGQHQNDKGKNVRQRNSS		changes	
